Experimental data from the RNAGym collection of RNA variant scans (doi:10.1073/pnas.2313332121).

B1: TPR t1 (parent)
chain: GACCAAUCUGCCCUCAGAGCUCGAGAACAUCUUCGGAUGCAGAGGAGGCAGGCUUCGGUGGCGCGAUAGCGCCAACGUCCUCAACCUCCAAUGCAUCCCACCACAUGAUGAUGCCUGAAGAGCCUUGGUUUUUUG

Variants of: B1
Experiment: polymerase ribozyme fitness, log enrichment relative to wild type (log ratio); higher = more active; in vitro selection for triplet polymerase activity
Procedure, shortened: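 PCR was used to build mutant libraries for each subunit of a heterodimeric triplet polymerase ribozyme, which were then transcribed. A single in vitro selection round, in triplicate, used a frozen incubation at −7 °C and recovered extended constructs by gel excision, streptavidin beads and RT-PCR. Fitness is the logarithm of genotype enrichment relative to wild-type enrichment, averaged over replicates with inverse-variance weights. The logarithm is base 2, and after Illumina sequencing only genotypes with ≥10 input reads and ≥1 read per output were kept.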

| Variant | polymerase ribozyme fitness (log ratio) |
| --- | --- |
| U55A C124G | 1.88 |
| U55G C56G A68G | -5.14 |
| C56G A74G | -1.5 |
| U55G U81A A119U | -1.33 |
| U55A G63C C98U G113U | -4.52 |
| C56A C73A | -0.651 |
| C56A C73U | 0.483 |
| U55C U92G | -2.25 |
| U54G U87C C115G | -1.72 |
| C56A U116C | -0.712 |
| C56A U116A | -3.29 |
| U55A G69A C94A | -4.1 |
| U54G C56A | -1.48 |
| U54G C97U | -0.558 |
| C56A C79U U109A C123G | -6.51 |
| C56A C70A G77C | -3.23 |
| U55C G61U G113A | -1.64 |
| C56A A105C | -3.61 |
| U54G C85A | -1.99 |
| U55C G57U U59A C89U | -2.23 |
| U55G U132C | -0.153 |
| C56A A83G U129G | -2.3 |
| U54G G61A C86G | -5.3 |
| C56A A95C U106A C124U | 0.424 |

| Variant | polymerase ribozyme fitness (log ratio) |
| --- | --- |
| C56G C85A | -2.26 |
| C56G C85U | -0.934 |
| U54G G60A U87A A95G G110C | -6.6 |
| C56A U112A C114A U116G | -6.59 |
| C56A U92G C101G A121G | -4.49 |
| U54C G61C A75U | 0.0964 |
| C56A U130C | -0.155 |
| C56G C89G G122A U129A | -4.09 |
| C56G G58U A90U | -1.92 |
| U55C A111U A119C | -5.71 |
| U55C G113A | -1.89 |
| U55C G113U | -3.3 |
| C56A C62U | -0.164 |
| C56A C62G | -3.98 |
| C56A A84G C104U G120A | -1.12 |
| U54C U109G | -5.15 |
| U54C U96A | -0.835 |
| C56A A95C U106A G128A | -3.3 |
| U55G C62A | -0.186 |
| U55G C62G | -0.626 |
| C56A G120C A121U U131A | -0.425 |
| U55G C82A | -0.266 |
| C56A A66U G71C G120U | -7.24 |
| U54G U87A | -0.0841 |

| Variant | polymerase ribozyme fitness (log ratio) |
| --- | --- |
| U54G U87C | -0.0304 |
| U55G A103C | -4.87 |
| U55G G71A | -1.19 |
| C56A A105G A111C G113A | -5.31 |
| U55C G57A G69U C89U G110U U129A | -3.64 |
| U55A C79A U125G U133G | -4.8 |
| C56G C97A G122A | -4.86 |
| U54C G61U U116A U131C | -2.5 |
| C56G C98A | -3.95 |
| C56G C79U U92A | -3.45 |
| C56A U59G | -1.14 |
| C56G C115U | -1.4 |
| C56G A111U | -2.49 |
| U55A C85A C115G | -3.37 |
| C56A A108G G117U | -3.81 |
| U54C G77U | -0.352 |
| U54C U133A | -0.0319 |
| U55A G69C U87G G93U | -1.37 |
| C56A G69C | -3.89 |
| C56A G69U | -0.137 |
| C56A C82U C104U G122A U125A | -1.2 |
| C56A C72G G77C C98U G128A | -3.6 |
| C56G A90C A121G | 1.01 |
| C56G C101U U130C | 0.475 |

| Variant | polymerase ribozyme fitness (log ratio) |
| --- | --- |
| U55A G71C | -1.29 |
| U55C G61C C80A | -3.32 |
| U55C C79A | -2.08 |
| U54G C62A A95C A121G | -6.12 |
| C56A C94A | -1.2 |
| U55A C104A G113C G122U | -3.73 |
| C56A C72U C104A C124U | -0.00796 |
| U55G A66U A83U | -3.53 |
| C56A C114A | -1.74 |
| C56A C114U | -2.03 |
| U54C G122A | -0.596 |
| C56G A90G G127C | -2.21 |
| U55C U59A C88U | -0.406 |
| U55G C56U | -0.601 |
| C56G C85U A121U | 0.921 |
| C56G C70U C88U U106A U133A | -1.55 |
| C56G C124G | 0.656 |
| C56G C124A | 1.73 |
| C56A G69U C88G C115U | -1.62 |
| U55C G63U | -1.09 |
| U55G A121C G135U | 1.07 |
| U54G G120A | -0.587 |
| C56A C62A U78C C79U | -4.08 |
| U54C G61A U81A U96A | -1.36 |

| Variant | polymerase ribozyme fitness (log ratio) |
| --- | --- |
| C56A G69U A108G U112C G117A U134C | -3.02 |
| U54G A105G U112A C123G C124A U132C | -2.09 |
| C56G A66U | -1.02 |
| U55G C72U U87C G107U | -4.49 |
| C56A A84U C94A C114A | -3.7 |
| C56A A111U | -3.34 |
| C56A A111C | -0.279 |
| U55G G60A C89A C114A | -2.87 |
| U54G C72U U129C | -0.965 |
| U55A G63A C73A | -1.05 |
| U54G A108U | -5.9 |
| C56A U112C | -0.107 |
| C56A G60U G113A | -1.2 |
| U54G C82A G120U | -0.425 |
| U54G C72G U129A | -2.34 |
| U55G C56U G117A G135C | -2.53 |
| C56A U78G | -0.153 |
| C56A G135U | -1.7 |
| C56A C102U | -1.54 |
| U55G G58A U130A | -0.383 |
| C56A A74C C98U | -0.178 |
| U54G G71U A75C C98U U125C | -4.29 |
| U54G U55G C73A C102G G110U G120C | -7.7 |
| U55G C104A | -1.59 |

| Variant | polymerase ribozyme fitness (log ratio) |
| --- | --- |
| U54G U55G G60C C85U | -6.29 |
| C56G A91C G117C A119G | -1.73 |
| C56A A84C | -1.1 |
| U55G C88A C115U C124A G128U | -4.24 |
| U54C G58A U92C | -0.614 |
| C56A G69A U133C | -2.92 |
| U54C G120A | -0.357 |
| C56A G117U | -2.01 |
| C56A G117C | -3.44 |
| C56A G117A | -2.11 |
| C56G G58U U59C C124A | 1.88 |
| C56A C79G U87A | -1.58 |
| C56A C97G | -4.2 |
| U55G C72U | -0.317 |
| C56A G71U C82U | -1.78 |
| C56A U125G | -1.39 |
| C56A G69A A84G A121C | -3.85 |
| C56A C62G C88U | -3.82 |
| C56G C97A | -5.24 |
| U54G C82A C94G C124U | 0.658 |
| U55G C70U C89A C104U | -2.38 |
| C56A G77C C98U G128A | -3.89 |
| C56A C85G U92C | -4.74 |
| C56G A90U U92G C97U | -2.65 |

| Variant | polymerase ribozyme fitness (log ratio) |
| --- | --- |
| U54C U87A | 0.213 |
| U54G | -0.214 |
| U55A U59C G135U | -1.36 |
| C56A C80U | -1.23 |
| C56A C80G | -2.82 |
| U55G C85A U92G U106A | -5.73 |
| C56G C79A C115A U131A | -0.673 |
| U55G G57A | -0.536 |
| C56A C73A C124G U125C U126A | -2.94 |
| C56A G63A C89U | -3.22 |
| U55A C73U C85A C115G | -3.38 |
| U55A U112A | 1.77 |
| U55C C70U | -0.302 |
| U55A C85G C86G U112G G128A | -2.76 |
| C56A U87A U92A G120A A121U U131A | -4.2 |
| U54C G71U C97G C123U | -4.02 |
| U55G C64U A90C U92G C101A | -3.82 |
| C56G C70G | -3.88 |
| C56G C70A | -3.64 |
| C56A C88U | -0.627 |
| C56A C88A | -0.627 |
| U55C A66G A90U | -4.46 |
| C56A G117A U125G G128C | -4.73 |
